The data set concerns the target BPHIN 1 (wild-type HIV-1 integrase) (Human immunodeficiency virus 1, UniProt P04585 P04585:1148-1435). The experiment in a line: pGL2 fragments 150-500 bp; 5 mM MnCl2, 37 C. The conditions noted are these: tags: BioProducts MD, LLC; chain copies: 4; partially double-stranded.

B1: IN adaptor 7 (dsDNA)
DNA 1: AATGATACGGCGACCACCGAGATCTACACTCTTTCCCTACACGACGCTCTTCCGATCTAGCAGT
DNA 2: ACTGCT
In the case of B1, the binding result is listed as “binds”.

The record behind these values is patent US20190194718, “GENERATION OF TAGGED DNA FRAGMENTS” (QIAGEN GMBH, published 2019).
